System: peptide library, one residue held at a place counted from the S/T acceptor
Assay: relative phosphorylation of the sub-library (ratio to the mean residue at this position); higher = residue favoured
Settings: human
Summary of the method: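 Relative sub-library phosphorylation, a ratio to the mean residue at that position, was obtained by phosphorimaging and densitometry of spots on streptavidin membranes. Before capture, purified recombinant kinases were incubated for 90 min under kinase-specific conditions with 50 μM biotinylated degenerate peptide sub-libraries and 50 μM ATP spiked with γ-32P-ATP. Each sub-library fixed one residue at one position around a central Ser/Thr.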

Sequence of IRAK1, construct: aa186-530 (P51617 186-530, looked up): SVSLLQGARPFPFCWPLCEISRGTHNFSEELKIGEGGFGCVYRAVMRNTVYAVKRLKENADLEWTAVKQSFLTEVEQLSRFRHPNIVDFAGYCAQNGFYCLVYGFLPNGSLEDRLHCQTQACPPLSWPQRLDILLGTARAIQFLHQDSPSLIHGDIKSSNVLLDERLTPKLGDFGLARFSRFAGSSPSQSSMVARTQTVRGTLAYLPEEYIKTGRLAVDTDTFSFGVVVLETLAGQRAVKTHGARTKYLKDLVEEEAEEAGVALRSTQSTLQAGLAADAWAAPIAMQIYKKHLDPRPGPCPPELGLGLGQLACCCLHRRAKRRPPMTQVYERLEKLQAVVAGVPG
Sequence of NEK8, construct: aa1-322 (Q86SG6 1-322, looked up): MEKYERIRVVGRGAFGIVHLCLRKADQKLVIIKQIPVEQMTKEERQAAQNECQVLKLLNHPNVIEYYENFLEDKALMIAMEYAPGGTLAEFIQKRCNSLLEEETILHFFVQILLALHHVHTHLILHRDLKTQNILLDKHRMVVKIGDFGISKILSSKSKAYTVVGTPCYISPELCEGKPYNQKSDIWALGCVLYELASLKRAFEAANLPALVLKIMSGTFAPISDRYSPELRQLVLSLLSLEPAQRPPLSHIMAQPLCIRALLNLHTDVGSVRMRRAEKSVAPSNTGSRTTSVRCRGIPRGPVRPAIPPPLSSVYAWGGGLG

IRAK1, construct: aa186-530 (from UniProt P51617)
relative phosphorylation
Settings | at +1 | at +2 | at +3 | at +4 | at -1 | at -2 | at -3 | at -4 | at -5
A fixed | 0.864 | 0.732 | 0.528 | 0.839 | 0.549 | 1.22 | 1.05 | 0.838 | 0.984
D fixed | 0.289 | 0.355 | 0.361 | 0.391 | 0.359 | 0.433 | 0.405 | 0.63 | 0.557
E fixed | 0.435 | 1.03 | 0.316 | 0.501 | 0.236 | 0.423 | 0.57 | 0.668 | 0.629
F fixed | 1.34 | 0.929 | 1.71 | 0.843 | 1.69 | 1.07 | 1.02 | 1.17 | 1.09
G fixed | 1.28 | 0.501 | 0.55 | 0.766 | 0.4 | 0.801 | 0.874 | 0.846 | 1.01
H fixed | 0.703 | 1.2 | 0.889 | 1.13 | 1.34 | 1.12 | 1.55 | 1.08 | 1.3
I fixed | 2.14 | 2.49 | 1.84 | 1.27 | 0.864 | 1.08 | 1.19 | 1.29 | 1.38
K fixed | 0.885 | 0.442 | 0.719 | 1.32 | 0.789 | 0.64 | 1.02 | 1.06 | 1.01
L fixed | 1.25 | 0.867 | 1.22 | 1.13 | 0.847 | 1.67 | 1.11 | 1.09 | 0.973
M fixed | 1.59 | 1.07 | 1.56 | 1.17 | 1.02 | 1.78 | 1.43 | 1.08 | 1.12
N fixed | 0.604 | 0.781 | 0.558 | 0.806 | 0.776 | 1.47 | 0.918 | 1.33 | 0.973
P fixed | 0.159 | 0.336 | 0.221 | 0.969 | 0.287 | 0.495 | 0.464 | 0.559 | 0.696
Q fixed | 1.08 | 0.734 | 0.567 | 0.766 | 0.527 | 0.957 | 0.954 | 0.813 | 0.845
R fixed | 1.05 | 0.633 | 1.04 | 1.75 | 1.53 | 1.16 | 1.5 | 0.988 | 1.29
V fixed | 1.69 | 1.95 | 1.07 | 0.745 | 0.863 | 0.788 | 0.849 | 1.16 | 1.07
W fixed | 0.854 | 1.37 | 2.17 | 1.54 | 2.85 | 0.745 | 0.9 | 1.11 | 0.809
Y fixed | 0.799 | 1.58 | 1.69 | 1.06 | 2.08 | 1.13 | 1.21 | 1.27 | 1.27
pThr fixed | 0.544 | 0.539 | 0.403 | 0.473 | 0.484 | 0.857 | 0.765 | 1.09 | 0.722
pTyr fixed | 0.357 | 0.562 | 0.482 | 0.464 | 0.522 | 0.756 | 1.19 | 0.831 | 0.843

NEK8, construct: aa1-322 (from UniProt Q86SG6)
relative phosphorylation
Settings | at +1 | at +2 | at +3 | at +4 | at -1 | at -2 | at -3 | at -4 | at -5
A fixed | 0.671 | 0.695 | 0.727 | 0.752 | 0.875 | 0.751 | 0.814 | 0.847 | 0.971
D fixed | 0.407 | 0.332 | 0.655 | 0.562 | 1.08 | 1.53 | 0.918 | 1.68 | 1.61
E fixed | 0.37 | 0.28 | 0.459 | 0.527 | 1.16 | 1.09 | 0.764 | 1.25 | 1.09
F fixed | 1.97 | 1.12 | 1.7 | 1.11 | 0.777 | 0.882 | 0.995 | 0.89 | 1.02
G fixed | 0.654 | 0.656 | 0.992 | 0.944 | 0.602 | 1.09 | 0.975 | 0.936 | 1.05
H fixed | 1 | 1.01 | 1.16 | 0.97 | 0.967 | 0.963 | 1.05 | 0.983 | 1.04
I fixed | 0.826 | 0.761 | 0.74 | 0.815 | 0.555 | 0.679 | 0.69 | 0.606 | 0.658
K fixed | 0.933 | 2.05 | 1.4 | 1.81 | 1.5 | 0.755 | 0.799 | 0.918 | 1.08
L fixed | 1.06 | 0.845 | 1.04 | 0.978 | 1.11 | 1.25 | 1.56 | 0.792 | 0.771
M fixed | 2.03 | 0.89 | 0.95 | 0.97 | 1.36 | 0.959 | 1.52 | 0.858 | 0.76
N fixed | 0.945 | 0.841 | 1.05 | 1.02 | 1.11 | 1 | 0.837 | 1.09 | 1.06
P fixed | 0.239 | 0.525 | 0.826 | 1.32 | 0.433 | 0.485 | 0.878 | 0.926 | 1.11
Q fixed | 1.33 | 0.836 | 0.861 | 1.12 | 1.34 | 0.75 | 0.924 | 0.839 | 0.935
R fixed | 1.34 | 3.13 | 1.54 | 1.54 | 1.72 | 1.59 | 1.84 | 0.966 | 0.956
V fixed | 0.7 | 0.798 | 0.628 | 0.66 | 0.63 | 0.625 | 0.465 | 0.597 | 0.712
W fixed | 1.29 | 0.948 | 1.26 | 1.03 | 0.775 | 1.33 | 1.05 | 2.01 | 1.3
Y fixed | 1.24 | 1.28 | 1.02 | 0.86 | 0.999 | 1.26 | 0.924 | 0.805 | 0.871
pThr fixed | 0.717 | 0.574 | 0.612 | 0.672 | 0.593 | 1.01 | 1.17 | 1.13 | 1.4
pTyr fixed | 0.64 | 0.439 | 0.819 | 0.583 | 1.42 | 1.66 | 1.3 | 1.05 | 1.38
